Source: article PMC4351732 (Structure (London, England : 1993), 2015)

Target: the molecule itself
Experiment: crystal structure

B1: human NAPE-hydrolyzing phospholipase D (NAPE-PLD), truncated form Δ47 (D47 to F393) (enzyme, UniProt Q6IQ20 47-393, looked up)
chain: DYRLEEDVTKSKKGKDGRFVNPWPTWKNPSIPNVLRWLIMEKDHSSVPSSKEELDKELPVLKPYFITNPEEAGVREAGLRVTWLGHATVMVEMDELIFLTDPIFSSRASPSQYMGPKRFRRSPCTISELPPIDAVLISHNHYDHLDYNSVIALNERFGNELRWFVPLGLLDWMQKCGCENVIELDWWEENCVPGHDKVTFVFTPSQHWCKRTLMDDNKVLWGSWSVLGPWNRFFFAGDTGYCPAFEEIGKRFGPFDLAAIPIGAYEPRWFMKYQHVDPEEAVRIHTDVQTKKSMAIHWGTFALANEHYLEPPVKLNEALERYGLNAEDFFVLKHGESRYLNNDDENF
stoichiometry N: 2
